Measured values taken from US20250002610A1 (Genmab, published 2025).

T1: FcγRIIa-H131 (CD32A Protein, Human, Recombinant (167 His, His Tag)) (human, UniProt P12318 34-218, limits assumed)
T1 construct: Bought reagent; not shown: His tag
T1 sequence (looked up): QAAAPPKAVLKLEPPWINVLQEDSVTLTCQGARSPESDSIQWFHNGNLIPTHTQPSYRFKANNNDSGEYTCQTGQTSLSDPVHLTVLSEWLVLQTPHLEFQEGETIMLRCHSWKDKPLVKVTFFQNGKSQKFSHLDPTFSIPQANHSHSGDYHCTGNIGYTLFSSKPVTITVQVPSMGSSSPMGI

T2: FcγRIIb (CD32B/Fcgr2b Protein, Human, Recombinant (His & AVI Tag), Biotinylated) (human, UniProt P31994 43-217, limits assumed, biotinylated)
T2 construct: Bought reagent; not shown: His & AVI tag
T2 sequence (looked up): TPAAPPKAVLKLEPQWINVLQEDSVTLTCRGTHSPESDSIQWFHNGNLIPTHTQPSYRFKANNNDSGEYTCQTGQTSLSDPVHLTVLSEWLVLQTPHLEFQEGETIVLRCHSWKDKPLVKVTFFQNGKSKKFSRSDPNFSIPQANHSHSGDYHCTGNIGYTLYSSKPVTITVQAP

T3: cynomolgus monkey DR4 with death domain deletion on ExpiCHO-S cells (cynomolgus monkey (Macaca fascicularis))
T3 construct: also called cynomolgus DR4
T3 chain: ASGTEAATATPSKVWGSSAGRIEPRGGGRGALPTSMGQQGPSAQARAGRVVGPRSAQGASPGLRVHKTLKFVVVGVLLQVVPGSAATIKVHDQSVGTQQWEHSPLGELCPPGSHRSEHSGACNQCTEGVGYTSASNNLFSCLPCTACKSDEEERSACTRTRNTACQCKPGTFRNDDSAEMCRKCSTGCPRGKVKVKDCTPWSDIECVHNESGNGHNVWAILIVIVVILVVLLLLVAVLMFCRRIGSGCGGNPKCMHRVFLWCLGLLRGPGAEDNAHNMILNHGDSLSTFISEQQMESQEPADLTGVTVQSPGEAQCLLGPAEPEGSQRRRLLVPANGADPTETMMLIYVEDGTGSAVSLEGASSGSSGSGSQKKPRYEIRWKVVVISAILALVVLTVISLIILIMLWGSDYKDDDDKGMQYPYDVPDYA

B1: IgG1-b12 (antibody)
heavy: not shown
light: EIVLTQSPGTLSLSPGERATFSCRSSHSIRSRRVAWYQHKPGQAPRLVIHGVSNRASGISDRFSGSGSGTDFTLTITRVEPEDFALYYCQVYGASSYTFGQGTKLERKRTVAAPSVFIFPPSDEQLKSGTASVVCLLNNFYPREAKVQWKVDNALQSGNSQESVTEQDSKDSTYSLSSTLTLSKADYEKHKVYACEVTHQGLSSPVTKSFNRGEC
notes: HIV gp120 antibody b12 with wild-type IgG1 Fc; also called IgG-b12
B2: IgG1-DR4-FERR (antibody, V domains shown)
VH: QVQLQESGPGLVKPSGTLSLTCAVSGGSISSYSWWSWIRQPPGKGLEWIGELYHSGSTNYNPSLKSRVTISVDKSKNQFSLKLRSVTAADTAVYYCVRGVATIDYWGQGTLVTVSS
VL: QSALTQPPSASGSPGQSVTISCTGTSSDVGGYNFVSWYQQDPGKAPKLLIYEVTKRPSGVPDRFSGSKSGNTASLTVSGLQAEDEADYYCSSYAGSNNVMFGGGTKLTVLG
notes: Bivalent monoclonal IgG1 lambda

Tests used:
[1] = molecular target: T1, FcγRIIa-H131 (CD32A Protein, Human, …); assay: SPR (Biacore 8K), His-tagged FcγRIIa-H131 captured on an anti-His chip, antibody as analyte, endpoint response against concentration
Description: (§1) Binding of BisG1-FAPα-FERL/DR4-FERR to immobilized human His-tagged FcγRs and FcRn was analyzed by SPR using a Biacore 8K SPR system (Cytiva). To this end, anti-His antibodies were covalently immobilized on the surface of Biacore Series S Sensor Chip CM5 (Cytiva, Cat. #29104988) using the Amine Coupling Kit (Cytiva, Cat. #BR100050) and a His Capture Kit (Cytiva, Cat. #29234602) according to the manufacturer's instructions. To assess antibody binding to immobilized human FcγRs, aliquots of the recombinant His-tagged FcγR proteins (Table 24) were diluted in HBS EP+Buffer pH 7.4 (Cytiva, Cat. #BR100669) and used to capture the FcγR proteins on the surface of the anti-His antibody-coated sensors using a flow rate of 10 μL/min and a contact time of 60 s. Captured levels ranged from 434 to 592 RU. After three start-up cycles of HBS-EP+Buffer, concentration ranges of BisG1-FAPα-FERL/DR4-FERR or IgG1-b12 antibodies (Table 25) were injected to generate binding curves on FcγR-captured sensors (active surface). For each antibody sample, a parallel flow cell without captured FcγRs was included (reference surface), which was used for RU background correction.
(§2) All sensorgrams were subtracted by the signal of the third start-up cycle with buffer only (mock analyte). […]

[2] = molecular target: T2, FcγRIIb (CD32B/Fcgr2b Protein, Human, …); assay: SPR (Biacore 8K), His-tagged FcγRIIb captured on an anti-His chip, antibody as analyte, endpoint response against concentration
Description: as §1, §2

[3] = molecular target: T3, cynomolgus monkey DR4 with death domain …; assay: flow cytometry, ExpiCHO-S cells expressing cynomolgus monkey DR4, average ± SEM
Description: (§3) Binding of BisG1-FAPα-FERL/DR4-FERR, BisG1-DR4-FEAL/b12-FEAR and IgG1-DR4-FERR to DR4 of various species commonly used for nonclinical toxicology studies was assessed by flow cytometry using ExpiCHO-S cells transiently expressing DR4 from different animal species. In contrast to other species, rodents only express one DR which has highest homology with human DR5. Therefore, ExpiCHO-S cells transiently expressing rat and mouse DR protein were used instead. All DR constructs lack the intracellular DD to avoid apoptosis of transfected cells upon DR(4) activation. IgG1-b12 was used as negative control.

[4] = molecular target: T3, cynomolgus monkey DR4 with death domain …; assay: flow cytometry, ExpiCHO-S cells expressing cynomolgus monkey DR4, n = 2
Description: as §3

[5] = molecular target: T3, cynomolgus monkey DR4 with death domain …; assay: flow cytometry, ExpiCHO-S cells expressing cynomolgus monkey DR4, n = 1
Description: as §3

Binder	binding result [1]	binding result [2]	EC50 [3]	EC50 [4]	EC50 [5]
B1	binds	binds	–	–	–
B2	–	–	1.84 mg/L	1.94 mg/L	2.57 mg/L
